Results: the Human Domainome abundance scans (Beltran et al. 2025)
± gives the uncertainty stated by the source.

assay: abundance fitness (aPCA) (normalised: wild type 0, dead -1); higher = more abundant; growth selection in yeast, the domain comes from the species named; settings: Homo sapiens

“SAFB-like transcription modulator R51V, Q9NWH9” and “SAFB-like transcription modulator G60W, Q9NWH9” are within error of each other in abundance fitness: -0.73 ± 0.19 for the first, -0.658 ± 0.047 for the second.

Going from “SAFB-like transcription modulator K53N, Q9NWH9” to “SAFB-like transcription modulator K53H, Q9NWH9”, the abundance fitness rises from -0.295 ± 0.11 to -0.039 ± 0.14.

“SAFB-like transcription modulator D29W, Q9NWH9” and “SAFB-like transcription modulator R26C, Q9NWH9” are within error of each other in abundance fitness: -0.882 ± 0.18 for the first, -0.57 ± 0.14 for the second.

First: BAG family molecular chaperone regulator 3 E27R, O95817
Second: BAG family molecular chaperone regulator 3 R53T, O95817
The abundance fitness of the first is lower: -0.742 ± 0.15 for the first, -0.225 ± 0.25 for the second.

Compared with “SAFB-like transcription modulator R26E, Q9NWH9”, “SAFB-like transcription modulator E59K, Q9NWH9” is lower in abundance fitness: -0.191 ± 0.11 for the first, -0.653 ± 0.13 for the second.

Going from “SAFB-like transcription modulator T42P, Q9NWH9” to “BAG family molecular chaperone regulator 3 D31E, O95817”, the abundance fitness rises from -0.729 ± 0.051 to 0.166 ± 0.077.

Going from “BAG family molecular chaperone regulator 3 E27T, O95817” to “BAG family molecular chaperone regulator 3 P37F, O95817”, the abundance fitness rises from -0.555 ± 0.15 to 0.528 ± 0.17.

Going from “SAFB-like transcription modulator I22Q, Q9NWH9” to “SAFB-like transcription modulator K45S, Q9NWH9”, the abundance fitness rises from -0.606 ± 0.093 to -0.25 ± 0.055.

“SAFB-like transcription modulator D29A, Q9NWH9” and “BAG family molecular chaperone regulator 3 R19C, O95817” are within error of each other in abundance fitness: -0.681 ± 0.25 for the first, -0.341 ± 0.19 for the second.

Compared with “BAG family molecular chaperone regulator 3 G15S, O95817”, “SAFB-like transcription modulator L68Y, Q9NWH9” is lower in abundance fitness: 0.814 ± 0.067 for the first, -0.763 ± 0.31 for the second.

Going from “SAFB-like transcription modulator L48D, Q9NWH9” to “SAFB-like transcription modulator L68A, Q9NWH9”, the abundance fitness rises from -0.274 ± 0.071 to 0.219 ± 0.15.

Going from “SAFB-like transcription modulator E59L, Q9NWH9” to “SAFB-like transcription modulator R37G, Q9NWH9”, the abundance fitness falls from -0.794 ± 0.041 to -0.912 ± 0.047.

Going from “BAG family molecular chaperone regulator 3 G35F, O95817” to “BAG family molecular chaperone regulator 3 T34W, O95817”, the abundance fitness rises from -0.552 ± 0.11 to -0.179 ± 0.083.

Going from “SAFB-like transcription modulator E59R, Q9NWH9” to “SAFB-like transcription modulator T42Y, Q9NWH9”, the abundance fitness rises from -0.532 ± 0.054 to 0.194 ± 0.11.

“SAFB-like transcription modulator I49E, Q9NWH9” and “BAG family molecular chaperone regulator 3 P37C, O95817” are within error of each other in abundance fitness: -0.056 ± 0.071 for the first, 0.143 ± 0.2 for the second.

Compared with “SAFB-like transcription modulator I22C, Q9NWH9”, “SAFB-like transcription modulator I56S, Q9NWH9” is lower in abundance fitness: -0.347 ± 0.05 for the first, -0.678 ± 0.082 for the second.

“BAG family molecular chaperone regulator 3 P24Y, O95817” and “SAFB-like transcription modulator P63M, Q9NWH9” are within error of each other in abundance fitness: -0.31 ± 0.28 for the first, -0.264 ± 0.068 for the second.

Going from “SAFB-like transcription modulator T46I, Q9NWH9” to “BAG family molecular chaperone regulator 3 I30W, O95817”, the abundance fitness rises from -0.107 ± 0.073 to 0.13 ± 0.12.

“BAG family molecular chaperone regulator 3 V12T, O95817” and “BAG family molecular chaperone regulator 3 D41M, O95817” are within error of each other in abundance fitness: -0.52 ± 0.43 for the first, -1 ± 0.45 for the second.

Compared with “SAFB-like transcription modulator R37I, Q9NWH9”, “BAG family molecular chaperone regulator 3 R19G, O95817” is higher in abundance fitness: -1.07 ± 0.16 for the first, -0.35 ± 0.12 for the second.

“BAG family molecular chaperone regulator 3 P52G, O95817” and “BAG family molecular chaperone regulator 3 R53G, O95817” are within error of each other in abundance fitness: -0.389 ± 0.1 for the first, -0.295 ± 0.09 for the second.

Going from “SAFB-like transcription modulator I41F, Q9NWH9” to “SAFB-like transcription modulator I41D, Q9NWH9”, the abundance fitness falls from 0.197 ± 0.079 to -0.457 ± 0.11.

“SAFB-like transcription modulator T46S, Q9NWH9” and “SAFB-like transcription modulator D24E, Q9NWH9” are within error of each other in abundance fitness: 0.05 ± 0.059 for the first, -0.003 ± 0.038 for the second.

“SAFB-like transcription modulator V27W, Q9NWH9” and “SAFB-like transcription modulator V47H, Q9NWH9” are within error of each other in abundance fitness: -0.396 ± 0.09 for the first, -0.329 ± 0.081 for the second.

Compared with “BAG family molecular chaperone regulator 3 Q11D, O95817”, “BAG family molecular chaperone regulator 3 W36E, O95817” is higher in abundance fitness: -0.046 ± 0.4 for the first, 1.43 ± 0.23 for the second.

First: BAG family molecular chaperone regulator 3 P55E, O95817
Second: SAFB-like transcription modulator T23I, Q9NWH9
The abundance fitness of the first is lower: -0.8 ± 0.36 for the first, -0.019 ± 0.033 for the second.

“BAG family molecular chaperone regulator 3 R19N, O95817” and “SAFB-like transcription modulator N65A, Q9NWH9” are within error of each other in abundance fitness: -0.125 ± 0.13 for the first, -0.236 ± 0.065 for the second.

“SAFB-like transcription modulator K20Y, Q9NWH9” and “SAFB-like transcription modulator Q54Y, Q9NWH9” are within error of each other in abundance fitness: -0.454 ± 0.3 for the first, -0.497 ± 0.27 for the second.

Compared with “SAFB-like transcription modulator D29Y, Q9NWH9”, “SAFB-like transcription modulator L52M, Q9NWH9” is higher in abundance fitness: -0.677 ± 0.089 for the first, -0.456 ± 0.1 for the second.

“BAG family molecular chaperone regulator 3 I28T, O95817” and “SAFB-like transcription modulator L34G, Q9NWH9” are within error of each other in abundance fitness: -0.636 ± 0.29 for the first, -0.829 ± 0.043 for the second.

“SAFB-like transcription modulator V47R, Q9NWH9” and “SAFB-like transcription modulator E67H, Q9NWH9” are within error of each other in abundance fitness: -0.207 ± 0.043 for the first, -0.107 ± 0.15 for the second.

First: SAFB-like transcription modulator D29P, Q9NWH9
Second: BAG family molecular chaperone regulator 3 D20V, O95817
The abundance fitness of the first is lower: -0.656 ± 0.097 for the first, -0.241 ± 0.074 for the second.

Going from “SAFB-like transcription modulator L39C, Q9NWH9” to “BAG family molecular chaperone regulator 3 P21R, O95817”, the abundance fitness rises from -0.446 ± 0.079 to 0.382 ± 0.081.

Going from “BAG family molecular chaperone regulator 3 D18N, O95817” to “BAG family molecular chaperone regulator 3 P55H, O95817”, the abundance fitness falls from 0.148 ± 0.068 to -0.636 ± 0.46.

Compared with “SAFB-like transcription modulator I49P, Q9NWH9”, “SAFB-like transcription modulator S50R, Q9NWH9” is higher in abundance fitness: -0.739 ± 0.067 for the first, -0.037 ± 0.062 for the second.

Substance “SAFB-like transcription modulator L48C, Q9NWH9” has an abundance fitness of -0.51 ± 0.042.
